Results taken from article PMC5025751.

Key:
[1] = target: Actin purified from rabbit skeletal muscle (F-actin filaments) (rabbit) (UniProt P68135); experiment: transient kinetics, quenching of pyrene-actin fluorescence; myosin rapidly mixed with MgATP, then with pyrene-labelled actin (0-50 uM; single filaments or fascin bundles) with high MgADP to stop further cycling
[2] = target: Fascin-bundled F-actin filaments (rabbit | not stated) (UniProt P68135); experiment: as above
[3] = target: myosin X anti-parallel coiled-coil (Homo sapiens) (UniProt Q9HD67); settings: cited from earlier work

Substance | rate of pyrene-actin fluorescence quenching [1] [s⁻¹] | rate of pyrene-actin fluorescence quenching [2] [s⁻¹] | Kd [3] [µM]
Human myosin X MD-3IQ-SAH (S1, truncated at Gln 851) (from UniProt Q9HD67 1-851; P0DP23 1-149) (complex) | 18 | 17 | 
MyoX-HMM-A938 (truncated human Myo10 HMM, amino acids 1-938, 19 amino-acid linker, Leucine zipper, AVI tag, Flag tag) (from UniProt Q9HD67 1-938; P0DP23 1-149) (complex) | 19 | 34 | 
myosin X anti-parallel coiled-coil (from UniProt Q9HD67) |  |  | 0.6
